Test results from patent publication US20220251227A1 (Eli Lilly, published 2022).

T1: human GITR (human, UniProt Q9Y5U5 26-241)
T1 sequence: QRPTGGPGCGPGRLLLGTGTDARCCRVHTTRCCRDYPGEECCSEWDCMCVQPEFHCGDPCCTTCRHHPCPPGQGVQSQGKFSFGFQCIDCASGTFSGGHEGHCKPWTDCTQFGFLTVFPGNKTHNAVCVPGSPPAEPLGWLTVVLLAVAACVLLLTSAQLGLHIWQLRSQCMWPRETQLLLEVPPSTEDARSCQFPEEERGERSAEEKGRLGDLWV


How the values were obtained:
human GITR [1] = target: T1, human GITR; test: cell-based or functional assay
Human serum albumin = target: T2, Human serum albumin (human, UniProt P02768 25-609); test: SPR, Biacore 8K, albumin immobilized on CM5, 25 C, 1:1 model
T2 construct: Bought protein, immobilized on a CM5 chip by amine coupling; also called Human SA
Description: (§1) Binding of Antibody I and Antibody II to various serum albumins is carried out on Biacore 8K instrument. The immobilization of the serum albumin to a Series S Sensor Chip CM5 (Cytiva 29149603) surface is performed according to the manufacturer's instructions (Amine Coupling Kit BR-1000-50). Briefly, carboxyl groups on the sensor chip surfaces (flow cell 1 and 2) are activated by injecting 70 μL of a mixture containing 75 mg/ml 1-Ethyl-3-(3-dimethylaminopropyl) carbodiimide hydrochloride (EDC), and 11.5 mg/ml N-Hydroxysuccinimide (NHS) at 10 μl/min. Human, cynomolgus monkey, rat, mouse, dog, pig, cow, and rabbit serum albumin are diluted in 10 mM sodium acetate pH 4.0 (BR-1003-49) at 0.8, 0.8, 0.8, 2.5, 0.8, 1, 1, and 1.5 μg/m1 then injected over the activated chip surfaces (flow cell 2, channel 1 to 8) at 10 μl/min for 100 seconds. Human serum albumin was obtained from Sigma Aldrich (St. Louis, Mo.) (Cat. No. A8763).
(§2) The serum albumins are covalently immobilized through free amines onto a carboxymethyl dextran-coated sensor chip CM5 at surface densities of 29-52 resonance units (RU) for human, cynomolgus monkey, rat, mouse, dog, pig, and cow as well as 118 resonance units (RU) for rabbit serum albumin. Excess reactive groups on the surfaces (flow cell 1 and 2) are deactivated by injecting 70 μl of 1 M Ethanolamine hydrochloride-NaOH pH 8.5.
(§3) The antibodies of Examples 1 and 2 (i.e., Antibody I and II, respectively) are diluted in HBS-EP+buffer (10 mM HEPES pH 7.6, 150 mM NaCl, 3 mM EDTA, 0.05% Polysorbate 20) at concentrations of 1000, 333.3, 111.1, 37.04, 12.35, 4.12, 1.37, 0.457, 0.152, 0.051 and 0.017 nM. 180 μl of sample are individually injected sequentially across the immobilized serum albumins on the chip's surface and dissociated for 600 sec at 60 μl/min flow rate at 25° C. The surface is regenerated by injecting 10 mM glycine-HCl pH 1.5 (BR-1003-54) at 60 μl/min for 100 sec. The resulting sensorgrams are analyzed using Biacore 8K Insight Evaluation Software (version 3.0.11.15423) 1:1 binding kinetics model fitting to calculate the binding kinetic parameters: association rate (ka), dissociation rate (kd), and equilibrium dissociation constant (KD).

Mouse serum albumin = target: T3, Mouse serum albumin (mouse, UniProt P07724 25-608); test: as above
T3 construct: Bought protein, immobilized on a CM5 chip by amine coupling; also called Mouse SA
Description: as §1, §2, §3

[2] = target: T4, Cynomolgus monkey serum albumin (cynomolgus monkey, UniProt A2V9Z4 25-608); test: as above
T4 construct: Bought protein, immobilized on a CM5 chip by amine coupling; also called Cyno SA
Description: as §1, §2, §3

Rat serum albumin = target: T5, Rat serum albumin (rat, UniProt P02770 25-608); test: as above
T5 construct: Bought protein, immobilized on a CM5 chip by amine coupling; also called Rat SA
Description: as §1, §2, §3

Dog serum albumin = target: T6, Dog serum albumin (dog, UniProt P49822 25-608); test: as above
T6 construct: Bought protein, immobilized on a CM5 chip by amine coupling; also called Dog SA
Description: as §1, §2, §3

Cow serum albumin = target: T7, Cow serum albumin (cow, UniProt P02769 25-607); test: as above
T7 construct: Bought protein, immobilized on a CM5 chip by amine coupling; also called Cow SA
Description: as §1, §2, §3

Pig serum albumin = target: T8, Pig serum albumin (pig, UniProt P08835 25-607); test: as above
T8 construct: Bought protein, immobilized on a CM5 chip by amine coupling; also called Pig SA
Description: as §1, §2, §3

cynomolgus monkey GITR [3] = target: T9, cynomolgus monkey GITR (cynomolgus monkey); test: flow cytometry on Jurkat cyno GITR/NFkBluc cells, anti-kappa PE detection, geometric mean of 3
T9 construct: whole, on cells; Stood on Jurkat cyno GITR/NFkBluc cells; also called cyno GITR
Description: Jurkat human GITR/NFkB-Luc2 and Jurkat cynomolgus monkey GITR/NFkBluc cells are resuspended in FACS buffer (PBS+1% BSA+0.01% sodium azide) at 1 million cells/mL and 5 μl Fc block/mL (BioLegend) is added and incubated at 4° C. for 20 min. Cells are washed with FACS buffer and resuspended at 1e6 cells/mL in FACS buffer and added to a polypropylene 96-well plate at 100 μl/well for 100,000 cells/well. 100 μl/well of 2X antibody dose titrations diluted in FACS buffer are added to cells and incubated 45 minutes at 4° C. Cells are washed twice with 200 μl/well FACS buffer and resuspended in 12.5 μg/mL anti-human Ig light chain kappa/PE secondary antibody (Invitrogen #PA1-74408) in FACS buffer and incubated for 45 minutes at 4° C. Cells are washed twice with 200 μl/well FACS buffer and resuspended in 200 μl FACS buffer. Samples are read on a Millipore EasyCyte Cytometer and median fluorescence intensity values are calculated using GuavaSoft 3.3 InCyte software. EC₅₀ values are calculated for each of 3 experiment replicates and the EC₅₀ Geometric Mean +/−Error (Delta Method) is calculated from these 3 results. The cell binding results shown in Table 5 indicate that both Antibody I and Antibody II bind potently to human GITR and cynomolgus monkey GITR (“cyno GITR”).

human GITR [4] = target: T1, human GITR; test: cell-based or functional assay; remark: listed apart in the source
cynomolgus monkey GITR [5] = target: T9, cynomolgus monkey GITR; test: cell-based or functional assay
human GITR [6] = target: T1, human GITR; test: cell-based or functional assay; remark: listed apart in the source
human GITR [7] = target: T1, human GITR; test: flow cytometry on Jurkat human GITR/NFkB-Luc2 cells, anti-kappa PE detection, geometric mean of 3
Description: Jurkat human GITR/NFkB-Luc2 cells (CS184004) were purchased from Promega and maintained in RPMI1640 media+10% FBS (HyClone SH30070.3)+400 μg/mL hygromycin B+600 μg/mL G418.
Jurkat human GITR/NFkB-Luc2 and Jurkat cynomolgus monkey GITR/NFkBluc cells are resuspended in FACS buffer (PBS+1% BSA+0.01% sodium azide) at 1 million cells/mL and 5 μl Fc block/mL (BioLegend) is added and incubated at 4° C. for 20 min. Cells are washed with FACS buffer and resuspended at 1e6 cells/mL in FACS buffer and added to a polypropylene 96-well plate at 100 μl/well for 100,000 cells/well. 100 μl/well of 2X antibody dose titrations diluted in FACS buffer are added to cells and incubated 45 minutes at 4° C. Cells are washed twice with 200 μl/well FACS buffer and resuspended in 12.5 μg/mL anti-human Ig light chain kappa/PE secondary antibody (Invitrogen #PA1-74408) in FACS buffer and incubated for 45 minutes at 4° C. Cells are washed twice with 200 μl/well FACS buffer and resuspended in 200 μl FACS buffer. Samples are read on a Millipore EasyCyte Cytometer and median fluorescence intensity values are calculated using GuavaSoft 3.3 InCyte software. EC₅₀ values are calculated for each of 3 experiment replicates and the EC₅₀ Geometric Mean +/−Error (Delta Method) is calculated from these 3 results. […]

Rabbit serum albumin = target: T10, Rabbit serum albumin (rabbit, UniProt P49065 25-608); test: SPR, Biacore 8K, albumin immobilized on CM5, 25 C
T10 construct: Bought protein, immobilized on a CM5 chip by amine coupling at 118 RU; also called Rabbit SA
Description: as §1, with “Human serum albumin was obtained from Sigma Aldrich (St. Louis, Mo.) (Cat. No. A8763).” left out
as §3, with “180 μl of sample are individually injected sequentially across the immobilized serum albumins on the chip's surface and dissociated for 600 sec at 60 μl/min flow rate at 25° C. The surface is regenerated by injecting 10 mM glycine-HCl pH 1.5 (BR-1003-54) at 60 μl/min for 100 sec.” left out

Row | Binder | IC50 nM GeoMean, inhibition of GITRL co-stimulation of T cell proliferation (human GITR [1]) | Kd (Human serum albumin) | koff (Human serum albumin) | kon (Human serum albumin) | Kd (Mouse serum albumin) | koff (Mouse serum albumin) | kon (Mouse serum albumin) | Kd [2] | koff [2] | kon [2] | Kd (Rat serum albumin) | koff (Rat serum albumin) | kon (Rat serum albumin) | Kd (Dog serum albumin) | koff (Dog serum albumin) | kon (Dog serum albumin) | Kd (Cow serum albumin) | koff (Cow serum albumin) | kon (Cow serum albumin) | Kd (Pig serum albumin) | also measured
1 | Antibody I (Fab, Monovalent anti-GITR Fab; also called HC anti-GITR Fab-VHH Fusion 1 with LC) heavy: not shown light: DIQMTQSPSSLSASVGDRVTITCRASQDISNSLAWYQQKPGKAPKRLIYAAFSLQSGVPSRFSGSGSGTEFTLTISSLQPEDFATYYCYQYYNYPSAFGQGTKLEIKRTVAAPSVFIFPPSDEQLKSGTASVVCLLNNFYPREAKVQWKVDNALQSGNSQESVTEQDSKDSTYSLSSTLTLSKADYEKHKVYACEVTHQGLSSPVTKSFNRGEC | 4.76 nM | 0.25 nM | 6.5e-05 s⁻¹ | 260000 M⁻¹ s⁻¹ | 53 nM | 0.0094 s⁻¹ | 180000 M⁻¹ s⁻¹ | 4.4 nM | 0.00082 s⁻¹ | 190000 M⁻¹ s⁻¹ | 44 nM | 0.007 s⁻¹ | 160000 M⁻¹ s⁻¹ | 20 nM | 0.0035 s⁻¹ | 170000 M⁻¹ s⁻¹ | 460 nM | 0.091 s⁻¹ | 200000 M⁻¹ s⁻¹ | 100 nM | koff (Pig serum albumin): 0.013 s⁻¹; kon (Pig serum albumin): 120000 M⁻¹ s⁻¹; EC50 (cynomolgus monkey GITR [3]): 3.06 nM; IC50 nM Mean, restoration of regulatory T cell suppression of effector T cell proliferation in the presence of GITRL (human GITR [4]): 4.69 nM; IC50 nM GeoMean, inhibition of GITRL stimulation of Jurkat GITR/NFkB luciferase cells (cynomolgus monkey GITR [5]): 2.27 nM; IC50 nM GeoMean, inhibition of GITRL stimulation of Jurkat GITR/NFkB luciferase cells (human GITR [6]): 4.1 nM; EC50 (human GITR [7]): 6.8 nM; binding result (Rabbit serum albumin): no binding (tested: 1000 nM highest concentration tested)
2 | Antibody II (Fab, Monovalent anti-GITR Fab; also called HC anti-GITR Fab-VHH Fusion 2 with LC) heavy: not shown light: DIQMTQSPSSLSASVGDRVTITCRASQDISNSLAWYQQKPGKAPKRLIYAAFSLQSGVPSRFSGSGSGTEFTLTISSLQPEDFATYYCYQYYNYPSAFGQGTKLEIKRTVAAPSVFIFPPSDEQLKSGTASVVCLLNNFYPREAKVQWKVDNALQSGNSQESVTEQDSKDSTYSLSSTLTLSKADYEKHKVYACEVTHQGLSSPVTKSFNRGEC | 1.84 nM | 0.4 nM | 7.8e-05 s⁻¹ | 190000 M⁻¹ s⁻¹ | 42 nM | 0.0096 s⁻¹ | 230000 M⁻¹ s⁻¹ | 5.9 nM | 0.00087 s⁻¹ | 150000 M⁻¹ s⁻¹ | 51 nM | 0.0073 s⁻¹ | 140000 M⁻¹ s⁻¹ | 20 nM | 0.0034 s⁻¹ | 170000 M⁻¹ s⁻¹ | 430 nM | 0.087 s⁻¹ | 200000 M⁻¹ s⁻¹ | 99 nM | koff (Pig serum albumin): 0.012 s⁻¹; kon (Pig serum albumin): 120000 M⁻¹ s⁻¹; EC50 (cynomolgus monkey GITR [3]): 2.34 nM; IC50 nM Mean, restoration of regulatory T cell suppression of effector T cell proliferation in the presence of GITRL (human GITR [4]): 2.72 nM; IC50 nM GeoMean, inhibition of GITRL stimulation of Jurkat GITR/NFkB luciferase cells (cynomolgus monkey GITR [5]): 1.26 nM; IC50 nM GeoMean, inhibition of GITRL stimulation of Jurkat GITR/NFkB luciferase cells (human GITR [6]): 1.68 nM; EC50 (human GITR [7]): 3.25 nM; binding result (Rabbit serum albumin): no binding (tested: 1000 nM highest concentration tested)
